Source: article doi:10.1101/2024.01.05.574350, “Heparan sulfate selectively inhibits the collagenase activity of cathepsin K” (bioRxiv, 2024)

Target: T1, mature cathepsin K (murine) (murine, UniProt P55097 115-329)
T1 construct: cathepsin K, murine; catalytic Cys25; 22 kDa as printed; No tag is named; also called CtsK; mature CtsK; source: 293-Freestyle cells, transient expression of pro-CtsK
T1 sequence (looked up): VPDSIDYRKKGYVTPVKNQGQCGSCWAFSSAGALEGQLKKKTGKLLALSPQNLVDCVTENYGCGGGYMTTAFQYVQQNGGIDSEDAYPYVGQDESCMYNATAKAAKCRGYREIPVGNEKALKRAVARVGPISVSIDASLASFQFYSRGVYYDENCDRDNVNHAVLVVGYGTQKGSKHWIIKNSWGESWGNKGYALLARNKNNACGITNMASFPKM
Assay: SEC; CtsK and Cst3 without HS, Superdex200 column
Conditions: both partners purified

stoichiometry N: 1
B1: Cystatin C (natural protein, UniProt P21460 21-140, looked up)
chain: ATPKQGPRMLGAPEEADANEEGVRRALDFAVSEYNKGSNDAYHSRAIQVVRARKQLVAGVNYFLDVEMGRTTCTKSQTNLTDCPFHDQPHLMRKALCSFQIYSVPWKGTHSLTKFSCKNA
notes: Cystatin C (Cst3), 13 kDa as printed; The printed residues (Pro7, Met9, Leu10, Gly11, Ala12, Leu56-Gly59, Pro105-Lys107) fit mature mouse cystatin C as I recall it, not the human protein; human cystatin C (PDB 3GAX) was only the search model for molecular replacement; also called Cst3; Cts3
